Data as given in patent US20260184773A1, “THERAPEUTIC SINGLE DOMAIN ANTIBODY” (priority 2021, published 2026).

Columns and labels:
PANC-1 tumors = settings: PANC-1 xenograft, intraperitoneal for 14 days
[1] = tested on: tSTAT3, pSTAT3 and PD-L1 in MDA-MB-231 cells; experiment: Immunoblot (slot blot) of tSTAT3, pSTAT3 and PD-L1; type: cell-based, human; settings: MDA-MB-231, 3, 6 and 24 hours, β-actin normalized, 50-100 ug/ml
HIV-1 RT = HIV-1 RT (Human immunodeficiency virus type 1 group M subtype B, UniProt P04585); settings: read-out: Binding affinity (KD)
MDA-MB-231 cells = experiment: Cell penetration by immunofluorescence/confocal microscopy; type: cell-based, human
ENBOV (Ebola) in HeLa = type: cell-based, Ebola virus
ENBOV (Ebola) in HFF = type: cell-based, Ebola virus
Zika in Vero = type: cell-based, Zika virus

## Nc1ccn([C@@H]2O[C@H](CO)[C@@H](O)C2(F)F)c(=O)n1 [Gemcitabine, gemcitabine, reference compound]
PANC-1 tumors; Day 12
  % Inhibition of Control, Day 12: 19.51%
PANC-1 tumors; Day 15
  % Inhibition of Control, Day 15: 23.17%
PANC-1 tumors; Day 19
  % Inhibition of Control, Day 19: 23.26%
PANC-1 tumors; Day 22 (end of the study)
  % Inhibition of Control, Day 22: 14.93%

## Cc1ccc(S(=O)(=O)OCC(=O)Nc2ccc(C(=O)O)c(O)c2)cc1 [S3I-201, reference compound]
[1]
  Levels of tSTAT3, pSTAT3 and PD-L1: decreased

B1: SBT-107: anti-HIV-1 Reverse Transcriptase (RT) VHH, SEQ ID NO. 4 (protein)
VHH: MGDVQLVESGGDSVRAGGSLQLSCKASGYTYNSRVDIRSMGWFRQYPGKEREGVATINIRNSVTYYADSVKGRFTISQDNAKNTVYLQMNALKPEDTAMYYCALSDRFAAQVPARYGIRPSDYNYWGEGTLVTVSSSSGLE
modifications: Camelid
HIV-1 RT
  Kd: 0.00385 µM
MDA-MB-231 cells
  Intracellular staining/localization of VHH: no intracellular staining

B2: SBT-106 (protein)
VHH: EVQLVESGGGSVQAGGSLRLSCAASVYSYNTNCMGWFRQAPGKEREGVAVIYAAGGLTYYADSVKGRFTISQENGKNTVYLTMNRLKPEDTAMYYCAAKRWCSSWNRGEEYNYWGQGTQVTVSS
ENBOV (Ebola) in HeLa
  EC50: 3.49 µM
ENBOV (Ebola) in HFF
  Comment: Does not inhibit Ebola virus
  EC50 [μM]: No
Zika in Vero
  EC50 [μM]: No
